Key:
Fer (mouse) = test: phosphorylation enrichment, bacterial display (enrichment ratio); higher = better substrate or ligand; peptides without Tyr show the background
AncSZ = test: as above
EPHB2 = EPHB2 (UniProt P29323); test: as above
EPHB1 = EPHB1 (UniProt P54762); test: as above
FGFR1 = FGFR1 (UniProt P11362); test: as above
Jak2 = Jak2 (UniProt O60674); test: as above
Hck = Hck (UniProt P08631); test: as above
c-Src = test: as above
FGFR3 = FGFR3 (UniProt P22607); test: as above
MERTK = MERTK (UniProt Q12866); test: as above
Fes = Fes (UniProt P07332); test: as above
Fes, sequence (P07332 whole entry, looked up): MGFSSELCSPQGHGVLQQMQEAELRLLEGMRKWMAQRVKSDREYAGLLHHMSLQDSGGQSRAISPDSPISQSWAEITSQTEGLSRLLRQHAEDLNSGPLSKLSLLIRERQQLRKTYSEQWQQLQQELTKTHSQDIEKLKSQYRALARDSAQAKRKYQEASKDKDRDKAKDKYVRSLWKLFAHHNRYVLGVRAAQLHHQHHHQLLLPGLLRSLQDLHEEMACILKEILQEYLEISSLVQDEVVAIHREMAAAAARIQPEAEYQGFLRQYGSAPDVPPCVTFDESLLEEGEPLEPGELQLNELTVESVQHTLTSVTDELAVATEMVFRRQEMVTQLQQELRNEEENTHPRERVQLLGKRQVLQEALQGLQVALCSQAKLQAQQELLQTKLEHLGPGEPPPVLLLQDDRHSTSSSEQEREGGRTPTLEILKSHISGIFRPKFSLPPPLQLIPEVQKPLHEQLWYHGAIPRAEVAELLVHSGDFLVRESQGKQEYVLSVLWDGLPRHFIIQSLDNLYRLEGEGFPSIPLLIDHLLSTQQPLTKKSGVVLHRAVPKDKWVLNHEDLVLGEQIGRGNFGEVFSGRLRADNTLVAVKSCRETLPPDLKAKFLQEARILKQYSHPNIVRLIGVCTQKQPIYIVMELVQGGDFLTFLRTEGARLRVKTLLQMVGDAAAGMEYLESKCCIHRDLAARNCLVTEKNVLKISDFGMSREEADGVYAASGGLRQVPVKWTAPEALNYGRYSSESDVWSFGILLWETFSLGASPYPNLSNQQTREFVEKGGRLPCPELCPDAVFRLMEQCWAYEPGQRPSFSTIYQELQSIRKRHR

Fyn = Fyn (UniProt P06241); test: as above
Fyn, sequence (P06241 whole entry, looked up): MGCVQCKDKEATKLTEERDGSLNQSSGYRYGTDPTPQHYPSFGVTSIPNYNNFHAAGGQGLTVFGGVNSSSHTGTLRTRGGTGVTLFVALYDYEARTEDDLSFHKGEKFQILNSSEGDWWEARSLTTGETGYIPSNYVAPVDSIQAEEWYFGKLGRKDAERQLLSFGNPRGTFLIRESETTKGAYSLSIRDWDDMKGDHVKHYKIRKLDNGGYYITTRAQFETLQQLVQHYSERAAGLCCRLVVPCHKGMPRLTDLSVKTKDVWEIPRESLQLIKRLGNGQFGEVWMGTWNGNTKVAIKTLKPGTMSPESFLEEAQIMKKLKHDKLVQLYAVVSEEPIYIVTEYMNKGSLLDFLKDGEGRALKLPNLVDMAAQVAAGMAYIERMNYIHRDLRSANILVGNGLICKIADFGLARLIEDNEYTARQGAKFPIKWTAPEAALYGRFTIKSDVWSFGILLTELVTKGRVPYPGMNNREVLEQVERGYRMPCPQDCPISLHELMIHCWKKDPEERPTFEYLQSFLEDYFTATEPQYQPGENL

c-Abl (mouse) = test: as above
Grb2 SH2 = Grb2 SH2 (UniProt P62993); test: SH2 binding enrichment of the phosphorylated peptide, bacterial display (enrichment ratio); higher = better substrate or ligand; peptides without Tyr show the background
Grb2 SH2, sequence (P62993 whole entry, looked up): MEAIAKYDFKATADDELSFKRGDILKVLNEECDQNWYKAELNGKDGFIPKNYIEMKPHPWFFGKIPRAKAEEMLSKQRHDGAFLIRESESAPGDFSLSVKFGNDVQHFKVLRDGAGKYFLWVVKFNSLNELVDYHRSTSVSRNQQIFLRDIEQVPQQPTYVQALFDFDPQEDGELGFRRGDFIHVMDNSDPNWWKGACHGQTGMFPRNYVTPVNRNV

c-Src SH2 = test: as above
SHP2-C SH2 = test: as above
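Throughout, for SH2 binding enrichment of the phosphorylated peptide, bacterial display: peptide library displayed on the E. coli surface as eCPX fusions, selected cells deep-sequenced, score is each peptide's frequency after selection divided by its frequency in the input.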
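Throughout, for phosphorylation enrichment, bacterial display: 11-residue human phosphosite peptides and single-mutation variants displayed on the E. coli surface, counted by deep sequencing, each peptide's frequency after selection divided by its frequency in the unselected input library; frequency after pTyr selection over input frequency; kinase dosed for 20-30% of maximal phosphorylation in three min.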

EPHB2, sequence (P29323 whole entry, looked up): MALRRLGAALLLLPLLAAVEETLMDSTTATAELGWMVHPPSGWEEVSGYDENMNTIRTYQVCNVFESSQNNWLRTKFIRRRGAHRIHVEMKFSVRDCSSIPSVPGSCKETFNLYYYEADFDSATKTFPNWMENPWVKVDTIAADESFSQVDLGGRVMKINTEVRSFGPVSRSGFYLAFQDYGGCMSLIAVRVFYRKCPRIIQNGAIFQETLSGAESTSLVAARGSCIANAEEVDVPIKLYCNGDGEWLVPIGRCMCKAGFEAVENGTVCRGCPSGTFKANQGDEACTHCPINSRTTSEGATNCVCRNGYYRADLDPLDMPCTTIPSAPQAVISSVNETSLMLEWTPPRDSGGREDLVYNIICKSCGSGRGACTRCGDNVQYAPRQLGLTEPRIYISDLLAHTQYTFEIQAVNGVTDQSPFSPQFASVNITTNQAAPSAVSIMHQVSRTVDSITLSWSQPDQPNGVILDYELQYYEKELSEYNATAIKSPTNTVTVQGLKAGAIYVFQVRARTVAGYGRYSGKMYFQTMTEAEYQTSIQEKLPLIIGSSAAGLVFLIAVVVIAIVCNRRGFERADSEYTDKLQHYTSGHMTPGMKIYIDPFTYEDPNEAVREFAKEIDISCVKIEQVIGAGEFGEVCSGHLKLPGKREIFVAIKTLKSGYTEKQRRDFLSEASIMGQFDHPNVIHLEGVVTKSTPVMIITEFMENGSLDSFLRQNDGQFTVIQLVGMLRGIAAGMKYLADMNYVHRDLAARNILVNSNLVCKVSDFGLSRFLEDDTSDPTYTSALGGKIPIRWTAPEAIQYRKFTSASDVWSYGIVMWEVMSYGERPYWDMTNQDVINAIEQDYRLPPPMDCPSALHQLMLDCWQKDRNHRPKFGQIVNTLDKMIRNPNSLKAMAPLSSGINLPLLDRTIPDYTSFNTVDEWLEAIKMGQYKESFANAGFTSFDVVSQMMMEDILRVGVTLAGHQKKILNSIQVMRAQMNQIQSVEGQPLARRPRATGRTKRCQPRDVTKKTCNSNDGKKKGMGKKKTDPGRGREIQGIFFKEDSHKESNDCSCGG
FGFR1, sequence (P11362 whole entry, looked up): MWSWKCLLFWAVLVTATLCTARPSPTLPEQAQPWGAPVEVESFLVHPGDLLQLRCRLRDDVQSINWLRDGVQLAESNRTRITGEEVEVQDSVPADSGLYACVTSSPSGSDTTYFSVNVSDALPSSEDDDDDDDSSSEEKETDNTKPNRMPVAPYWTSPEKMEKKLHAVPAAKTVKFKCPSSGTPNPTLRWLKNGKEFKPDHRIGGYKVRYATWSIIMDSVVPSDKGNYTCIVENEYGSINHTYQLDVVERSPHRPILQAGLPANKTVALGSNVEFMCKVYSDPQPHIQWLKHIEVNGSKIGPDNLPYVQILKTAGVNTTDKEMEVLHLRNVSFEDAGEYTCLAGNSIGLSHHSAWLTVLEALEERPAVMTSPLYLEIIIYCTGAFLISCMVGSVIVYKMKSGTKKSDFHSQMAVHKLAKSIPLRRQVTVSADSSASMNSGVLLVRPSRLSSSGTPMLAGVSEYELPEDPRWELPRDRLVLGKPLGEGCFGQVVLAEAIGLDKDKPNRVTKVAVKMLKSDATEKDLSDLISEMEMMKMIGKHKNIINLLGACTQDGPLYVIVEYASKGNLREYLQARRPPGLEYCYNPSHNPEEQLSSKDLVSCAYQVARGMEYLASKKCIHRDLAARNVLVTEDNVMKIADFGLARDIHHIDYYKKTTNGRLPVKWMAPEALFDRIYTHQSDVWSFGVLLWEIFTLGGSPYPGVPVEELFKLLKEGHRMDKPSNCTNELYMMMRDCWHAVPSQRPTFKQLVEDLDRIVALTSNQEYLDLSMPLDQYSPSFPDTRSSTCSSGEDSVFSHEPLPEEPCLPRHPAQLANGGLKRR
FGFR3, sequence (P22607 whole entry, looked up): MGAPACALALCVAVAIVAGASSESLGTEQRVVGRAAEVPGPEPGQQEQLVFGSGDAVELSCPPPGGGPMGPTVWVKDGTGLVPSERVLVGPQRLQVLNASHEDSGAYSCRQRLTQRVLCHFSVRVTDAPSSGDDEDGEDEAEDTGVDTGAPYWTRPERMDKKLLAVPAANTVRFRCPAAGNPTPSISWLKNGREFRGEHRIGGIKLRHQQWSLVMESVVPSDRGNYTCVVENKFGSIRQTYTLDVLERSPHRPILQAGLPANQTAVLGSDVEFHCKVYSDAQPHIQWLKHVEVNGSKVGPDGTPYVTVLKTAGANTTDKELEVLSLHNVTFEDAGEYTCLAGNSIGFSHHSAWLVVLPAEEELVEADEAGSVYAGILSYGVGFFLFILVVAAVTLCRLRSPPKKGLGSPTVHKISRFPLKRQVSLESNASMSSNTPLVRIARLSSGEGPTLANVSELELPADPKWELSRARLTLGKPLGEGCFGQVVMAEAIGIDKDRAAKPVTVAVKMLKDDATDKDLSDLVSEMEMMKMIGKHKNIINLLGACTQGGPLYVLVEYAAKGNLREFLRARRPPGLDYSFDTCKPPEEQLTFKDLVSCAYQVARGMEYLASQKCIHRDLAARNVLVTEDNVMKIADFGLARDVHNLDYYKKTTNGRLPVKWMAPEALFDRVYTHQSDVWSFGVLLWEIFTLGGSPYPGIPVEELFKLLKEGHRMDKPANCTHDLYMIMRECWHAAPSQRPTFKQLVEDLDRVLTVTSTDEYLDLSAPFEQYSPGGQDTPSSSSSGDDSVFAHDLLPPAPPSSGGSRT
Hck, sequence (P08631 whole entry, looked up): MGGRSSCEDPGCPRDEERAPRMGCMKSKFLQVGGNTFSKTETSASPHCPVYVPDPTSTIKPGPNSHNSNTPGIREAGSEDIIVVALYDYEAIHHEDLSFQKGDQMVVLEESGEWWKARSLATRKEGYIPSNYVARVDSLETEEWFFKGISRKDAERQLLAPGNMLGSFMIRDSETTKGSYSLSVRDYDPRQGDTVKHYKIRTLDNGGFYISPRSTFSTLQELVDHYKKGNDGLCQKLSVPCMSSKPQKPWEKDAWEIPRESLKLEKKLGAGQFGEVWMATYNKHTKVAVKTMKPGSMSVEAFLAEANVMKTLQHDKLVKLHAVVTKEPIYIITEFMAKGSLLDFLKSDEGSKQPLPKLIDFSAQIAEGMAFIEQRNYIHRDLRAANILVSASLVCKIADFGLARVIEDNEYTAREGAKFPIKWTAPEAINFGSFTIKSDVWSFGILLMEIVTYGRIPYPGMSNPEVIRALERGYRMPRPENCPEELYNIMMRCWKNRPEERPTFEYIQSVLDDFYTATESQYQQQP

Sequence | phosphorylation enrichment (Fer (mouse)) | phosphorylation enrichment (AncSZ) | phosphorylation enrichment (EPHB2) | phosphorylation enrichment (EPHB1) | phosphorylation enrichment (FGFR1) | phosphorylation enrichment (Jak2) | phosphorylation enrichment (Hck) | phosphorylation enrichment (c-Src) | phosphorylation enrichment (FGFR3) | phosphorylation enrichment (MERTK) | phosphorylation enrichment (Fes) | phosphorylation enrichment (Fyn) | phosphorylation enrichment (c-Abl (mouse)) | SH2 binding enrichment (Grb2 SH2) | SH2 binding enrichment (c-Src SH2) | SH2 binding enrichment (SHP2-C SH2)
VLVSQYEKLDA [AMZ2_Y26_N30D] | 0.47 | 0.808 | 0.606 | 0.561 | 0.366 | 0.738 | 0.484 | 0.539 | 0.589 | 0.462 | 0.826 | 0.489 | 0.586 | 0.896 | 7.26 | 0.602
RLGDLYKEEMR [VIM_Y150_E151K] | 0.43 | 1.08 | 0.672 | 0.779 | 0.674 | 0.995 | 0.824 | 0.587 | 0.832 | 0.362 | 1.17 | 0.756 | 0.762 | 1.09 | 0.607 | 0.752
RNVFFYSFLLK [PTEN_Y178_Y174N_YF] | 0.697 | 1.29 | 0.738 | 0.861 | 0.586 | 1.59 | 0.565 | 0.508 | 1.31 | 0.757 | 1.72 | 0.656 | 1.23 | 1.22 | 0.907 | 1.02
SVTCTYFPALN [TP53_Y126_S127F] | 0.637 | 1.68 | 0.669 | 0.83 | 0.632 | 1.64 | 0.554 | 0.452 | 1.01 | 0.608 | 1.82 | 0.487 | 1.13 | 0.721 | 0.388 | 0.747
EILLSYLRTGF [TGM1_Y365_YF] | 0.411 | 1.05 | 0.967 | 0.418 | 0.433 | 0.981 | 0.41 | 0.394 | 0.619 | 0.387 | 0.943 | 0.401 | 0.492 | 1.26 | 0.64 | 0.974
KEAQVYQAFRL [SUCLG2_Y343_K347R] | 14 | 0.576 | 0.62 | 1.23 | 0.743 | 0.661 | 14 | 11.3 | 0.581 | 4.78 | 0.677 | 14.2 | 19.6 | 0.768 | 0.486 | 0.541
FFRCHYPLTTL [TNS4_Y644_R642C] | 0.39 | 0.914 | 0.512 | 0.509 | 0.463 | 0.79 | 0.48 | 0.43 | 0.696 | 0.4 | 1.01 | 0.374 | 0.595 | 0.907 | 0.738 | 1.03
VYLGAYDRFLP [SLC22A5_Y486] | 1.88 | 1.25 | 2.53 | 1.82 | 0.948 | 0.74 | 5.32 | 4.49 | 0.803 | 4.72 | 0.992 | 4.5 | 1.2 | 0.862 | 0.727 | 3.12
SGSIHYSCVPR [GLB1_Y57_R59C] | 0.578 | 1.05 | 0.585 | 0.591 | 0.536 | 1.06 | 0.54 | 0.526 | 0.771 | 0.517 | 1.15 | 0.474 | 0.898 | 0.734 | 0.569 | 0.747
RHPLEYLRQYP [NARS2_Y138] | 0.536 | 0.664 | 0.45 | 0.523 | 0.75 | 1.22 | 0.561 | 0.577 | 0.586 | 0.454 | 1.13 | 0.579 | 1.37 | 1.38 | 0.775 | 0.938
EGNEQYEGYCV [GRIA3_Y451_R450Q] | 1.11 | 1.19 | 0.592 | 0.556 | 0.557 | 0.942 | 0.604 | 0.506 | 0.691 | 0.422 | 1.05 | 0.567 | 1.26 | 1.01 | 1.23 | 0.768
SKKVRYVVSKA [BARD1_Y156] | 0.36 | 0.474 | 0.334 | 0.309 | 0.292 | 0.482 | 0.372 | 0.341 | 0.402 | 0.312 | 0.569 | 0.366 | 0.538 | 1.38 | 1.32 | 1.17
GSERRYTREGG [PTPRN2_Y139_S140T] | 0.351 | 0.448 | 0.347 | 0.345 | 0.458 | 0.463 | 0.415 | 0.482 | 0.407 | 0.382 | 0.583 | 0.319 | 0.489 | 0.777 | 0.485 | 0.563
ISTAGYSIPEL [EDAR_Y406] | 0.436 | 0.807 | 0.464 | 0.525 | 0.416 | 0.745 | 0.534 | 0.457 | 0.697 | 0.713 | 0.92 | 0.397 | 1.46 | 0.796 | 7.33 | 0.893
RNDQVYQPLRD [CD3D_Y149] | 0.575 | 0.875 | 1.18 | 1.26 | 1.17 | 0.673 | 10.9 | 4.45 | 0.927 | 1.26 | 0.7 | 5.01 | 0.728 | 0.787 | 0.663 | 0.491
KFSNQYKATIG [RAB7A_Y37] | 0.463 | 0.528 | 0.311 | 0.47 | 0.351 | 0.538 | 0.44 | 0.485 | 0.411 | 0.4 | 0.613 | 0.41 | 0.471 | 0.948 | 0.656 | 1.01
MAFDRYVAICA [OR52J3_Y125_V128I] | 0.562 | 0.939 | 0.659 | 1.12 | 0.586 | 0.726 | 0.555 | 0.394 | 0.708 | 0.386 | 0.808 | 0.454 | 0.362 | 1.08 | 0.974 | 0.635

Sequence | phosphorylation enrichment (Fer (mouse)) | phosphorylation enrichment (AncSZ) | phosphorylation enrichment (EPHB2) | phosphorylation enrichment (EPHB1) | phosphorylation enrichment (FGFR1) | phosphorylation enrichment (Jak2) | phosphorylation enrichment (Hck) | phosphorylation enrichment (c-Src) | phosphorylation enrichment (FGFR3) | phosphorylation enrichment (MERTK) | phosphorylation enrichment (Fes) | phosphorylation enrichment (Fyn) | phosphorylation enrichment (c-Abl (mouse)) | SH2 binding enrichment (Grb2 SH2) | SH2 binding enrichment (c-Src SH2) | SH2 binding enrichment (SHP2-C SH2)
KRGASYILKLA [SERPINB1_Y84] | 0.415 | 0.96 | 0.477 | 0.37 | 0.509 | 0.952 | 0.414 | 0.421 | 0.76 | 0.421 | 1.06 | 0.408 | 0.802 | 1.64 | 1.24 | 1.5
NKFVAYIESQG [KDM4B_Y34_YF] | 0.481 | 0.899 | 0.553 | 0.526 | 0.491 | 0.836 | 0.494 | 0.452 | 0.663 | 0.459 | 1.12 | 0.49 | 0.611 | 0.968 | 0.565 | 0.801
GVRLFYRVRES [RB1_Y454_M457R_YF] | 0.461 | 1.25 | 0.529 | 0.471 | 0.513 | 1.05 | 0.375 | 0.349 | 0.65 | 0.383 | 1.16 | 0.417 | 0.976 | 0.705 | 0.476 | 0.578
WHFTFYNELRV [ACTC1_Y93_H90Y_YF] | 0.578 | 1.42 | 0.671 | 0.784 | 0.542 | 1.2 | 0.635 | 0.42 | 1.07 | 0.392 | 1.5 | 0.413 | 1.27 | 0.782 | 0.535 | 0.483
FARNSYVAGQY [G6PD_Y107] | 0.347 | 0.516 | 0.4 | 0.322 | 0.403 | 0.502 | 0.385 | 0.535 | 0.415 | 0.405 | 0.544 | 0.389 | 0.449 | 0.826 | 0.495 | 0.651
IRRIAYEFVEM [ADA_Y84_K80R] | 2.85 | 0.887 | 0.543 | 0.343 | 0.869 | 0.638 | 0.433 | 0.458 | 0.511 | 0.469 | 0.872 | 0.417 | 0.489 | 0.542 | 1.15 | 0.435
HKANEYYPVVL [ADAMTS18_Y764] | 2.6 | 2.86 | 1.45 | 1.47 | 23.2 | 9.18 | 1.95 | 1.65 | 15.7 | 1.13 | 1.22 | 0.956 | 2.49 | 0.902 | 0.985 | 0.907
DPHECYAKVFN [ALB_Y394_D399N] | 0.529 | 0.844 | 0.586 | 0.549 | 0.589 | 0.847 | 0.81 | 0.624 | 0.643 | 0.504 | 0.952 | 0.552 | 0.91 | 1.11 | 1.4 | 1.81
FTDPFYDFEIE [ZC3H18_Y372_A368T_YF] | 1.03 | 1.37 | 0.867 | 1.54 | 0.665 | 1.66 | 0.823 | 4.96 | 0.783 | 0.777 | 1.54 | 4.1 | 1.05 | 0.995 | 0.441 | 0.657
HICTAYKLVLA [DHCR24_Y190_E191K] | 1.52 | 1.88 | 1.53 | 1.49 | 2.66 | 1.88 | 1.47 | 1.34 | 2.2 | 0.832 | 2.86 | 1.3 | 0.969 | 0.867 | 0.45 | 0.56
SFCFRYRCAAR [SUMF1_Y344_YF] | 0.472 | 0.772 | 0.571 | 0.466 | 0.47 | 0.643 | 0.469 | 0.618 | 0.54 | 0.614 | 0.634 | 0.49 | 0.763 | 0.669 | 0.4 | 0.483
LGGAMYFLEAD [PKHD1_Y452_E457D_YF] | 0.517 | 1.01 | 0.701 | 0.535 | 0.461 | 1.03 | 0.581 | 0.772 | 0.77 | 0.536 | 1.09 | 0.717 | 0.682 | 0.768 | 0.667 | 0.698
MGSYNYLGFPR [SPTLC2_Y178_A182P] | 0.59 | 0.806 | 2.77 | 5.53 | 2.29 | 3.81 | 1.39 | 0.735 | 1.48 | 6.35 | 0.748 | 0.511 | 1.04 | 0.921 | 2.84 | 1.92
DQIDTYELSGG [DNM1_Y354] | 0.479 | 1.38 | 0.735 | 0.423 | 0.54 | 0.866 | 0.752 | 1.28 | 0.695 | 0.481 | 1.12 | 1.29 | 0.616 | 0.673 | 0.607 | 0.585
RNYGTYTAGLS [RHBDD1_Y264_D262G] | 0.519 | 0.781 | 3.23 | 0.804 | 0.546 | 0.74 | 2.76 | 1.94 | 0.533 | 0.55 | 0.748 | 2.18 | 0.629 | 0.835 | 0.533 | 0.512
TGDFGYRAPGF [TNS2_Y668_YF] | 0.44 | 0.724 | 0.414 | 0.501 | 0.542 | 0.724 | 0.409 | 0.593 | 0.601 | 0.542 | 0.784 | 0.6 | 1.02 | 0.965 | 0.463 | 0.726
